Our source for the protein stability index values is the supplement of paper PMC10567573.

B1: LOC100129726 (parent)
chain: AKAADSPTRNDLESGLGHFSLRVH
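Note: lentivirally expressed fusions sorted by FACS into six bins by GFP to DsRed ratio, PSI derived from sequencing read proportions per bin multiplied by bin number.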

In this series the parent is B1. Briefly: protein stability index of a GFP-peptide fusion (GPS, HEK-293T) (PSI 1-6); higher = more stable. As to conditions: c terminus: a fixed tail appended.
Turning to AKAADSPTRNDLESGLGHFSLVVH [R22V], the protein stability index worked out at 2.71. For AKAADSPTRNDLESGLGHFSLNVH [R22N] the value was 3.62; for AKAADSPTRNDLESGLGHFSLCVH [R22C], 2.27; for AKAADSPTRNDLESGLGHFSLGVH [R22G], 3.5. In the case of AKAADSPTRNDLESGLGHFSLDVH [R22D] it was 4.28; in that of AKAADSPTRNDLESGLGHFSLYVH [R22Y], 2.31. For AKAADSPTRNDLESGLGHFSLQVH [R22Q] the value was 2.73; for AKAADSPTRNDLESGLGHFSLKVH [R22K], 3.59; for AKAADSPTRNDLESGLGHFSLMVH [R22M], 2.61. Take AKAADSPTRNDLESGLGHFSLSVH [R22S]: the protein stability index was found to be 2.98. For AKAADSPTRNDLESGLGHFSLAVH [R22A] the value was 3.47; for AKAADSPTRNDLESGLGHFSLTVH [R22T], 2.8. In the case of AKAADSPTRNDLESGLGHFSLIVH [R22I] it was 2.61; in that of AKAADSPTRNDLESGLGHFSLHVH [R22H], 3.25. In the case of AKAADSPTRNDLESGLGHFSLPVH [R22P] it was 4. In the case of AKAADSPTRNDLESGLGHFSLEVH [R22E], the protein stability index amounted to 3.92.

Consider AKAADSPTRNDLESGLGHFSLFVH [R22F], for which the protein stability index was found to be 2.43. For AKAADSPTRNDLESGLGHFSLLVH [R22L] the value was 2.7; for AKAADSPTRNDLESGLGHFSLWVH [R22W], 2.4.

For the variant AKAADSPTRNDLESGLGHYSLRVH [F19Y], the protein stability index was 3.16. For AKAADSPTRNDLESGLGHESLRVH [F19E] the value was 4.6. For AKAADSPTRNDLESGLGHKSLRVH [F19K] the value was 4.63; for AKAADSPTRNDLESGLGHPSLRVH [F19P], 4.33; for AKAADSPTRNDLESGLGHVSLRVH [F19V], 3.58.

For the variant AKAADSPTRNDLESGLGHASLRVH [F19A], the protein stability index was found to be 3.95.

As for AKAADSPTRNDLESGLGHQSLRVH [F19Q], the protein stability index turned out to be 4.33. In the case of AKAADSPTRNDLESGLGHSSLRVH [F19S] it was 4.61. In the case of AKAADSPTRNDLESGLGHTSLRVH [F19T] it was 4.66. For AKAADSPTRNDLESGLGHLSLRVH [F19L] the value was 3.31; for AKAADSPTRNDLESGLGHHSLRVH [F19H], 3.67; for AKAADSPTRNDLESGLGHRSLRVH [F19R], 4.28. As for AKAADSPTRNDLESGLGHGSLRVH [F19G], the protein stability index is 4.32. For AKAADSPTRNDLESGLGHMSLRVH [F19M] the value was 3.69.

Regarding AKAADSPTRNDLESGLGHWSLRVH [F19W], the protein stability index was determined as 2.76.

AKAADSPTRNDLESGLGHNSLRVH [F19N]: the protein stability index is 4.24. As for AKAADSPTRNDLESGLGHDSLRVH [F19D], the protein stability index was determined as 4.6. For AKAADSPTRNDLYSGLGHFSLRVH [E13Y] the value was 1.38; for AKAADSPTRNDLSSGLGHFSLRVH [E13S], 2.8; for AKAADSPTRNDLASGLGHFSLRVH [E13A], 2.26. For AKAADSPTRNDLRSGLGHFSLRVH [E13R] the value was 2.38. In the case of AKAADSPTRNDLTSGLGHFSLRVH [E13T] it was 2.59; in that of AKAADSPTRNDLHSGLGHFSLRVH [E13H], 2.74.

AKAADSPTRNDLGSGLGHFSLRVH [E13G]: the protein stability index was determined as 2.02. In the case of AKAADSPTRNDLKSGLGHFSLRVH [E13K] it was 2.08; in that of AKAADSPTRNDLDSGLGHFSLRVH [E13D], 2.95. As for AKAADSPTRNDLQSGLGHFSLRVH [E13Q], the protein stability index amounted to 2.3. Take AKAADSPTRNDLWSGLGHFSLRVH [E13W]: the protein stability index is 1.85. In the case of AKAADSPTRNDLCSGLGHFSLRVH [E13C] it was 2.31; in that of AKAADSPTRNDLPSGLGHFSLRVH [E13P], 2.57; in that of AKAADSPTRNDLISGLGHFSLRVH [E13I], 2.32. In the case of AKAADSPTRNDLMSGLGHFSLRVH [E13M] it was 2.15; in that of AKAADSPTRNDLFSGLGHFSLRVH [E13F], 2.19. For AKAADSPTRNDLVSGLGHFSLRVH [E13V] the value was 2.52; for AKAADSPTRNDLNSGLGHFSLRVH [E13N], 2.63. Regarding AKAADSPTRNDLESNLGHFSLRVH [G15N], the protein stability index came out at 2.82. In the case of AKAADSPTRNDLESTLGHFSLRVH [G15T] it was 2.67; in that of AKAADSPTRNDLESQLGHFSLRVH [G15Q], 3.81; in that of AKAADSPTRNDLESELGHFSLRVH [G15E], 2.82. In the case of AKAADSPTRNDLESFLGHFSLRVH [G15F] it was 1.74; in that of AKAADSPTRNDLESYLGHFSLRVH [G15Y], 2.4; in that of AKAADSPTRNDLESILGHFSLRVH [G15I], 1.86. Regarding AKAADSPTRNDLESCLGHFSLRVH [G15C], the protein stability index worked out at 2.18. In the case of AKAADSPTRNDLESVLGHFSLRVH [G15V] it was 2.48. Turning to AKAADSPTRNDLESWLGHFSLRVH [G15W], the protein stability index is 1.57. For AKAADSPTRNDLESMLGHFSLRVH [G15M] the value was 2.23. AKAADSPTRNDLESHLGHFSLRVH [G15H]: the protein stability index was found to be 3.26. For AKAADSPTRNDLESKLGHFSLRVH [G15K] the value was 2.93. For AKAADSPTRNDLESPLGHFSLRVH [G15P] the value was 2.79; for AKAADSPTRNDLESDLGHFSLRVH [G15D], 3.51; for AKAADSPTRNDLESLLGHFSLRVH [G15L], 2.37. For AKAADSPTRNDLESRLGHFSLRVH [G15R] the value was 2.06; for AKAADSPTRNDLESSLGHFSLRVH [G15S], 2.86; for AKAADSPTRNDLESALGHFSLRVH [G15A], 2.4. For the variant AKAADSPTRNDYESGLGHFSLRVH [L12Y], the protein stability index was 1.93.

For AKAADSPTRNDLESGLGHFSLRAH [V23A], the protein stability index is 3.67. In the case of AKAADSPTRNDLESGLGHFSLRCH [V23C] it was 3.45; in that of AKAADSPTRNDLESGLGAFSLRVH [H18A], 3.25; in that of AKAADSPTRNDLESGLGPFSLRVH [H18P], 3.04. In the case of AKAADSPTRNDLESGLGFFSLRVH [H18F] it was 2.1; in that of AKAADSPTRNDLESGLGEFSLRVH [H18E], 3.45; in that of AKAADSPTRNDLESGLGIFSLRVH [H18I], 3.13. For AKAADSPTRNDLESGLGKFSLRVH [H18K] the value was 3.15. As to AKAADSPTRNDLESGLGYFSLRVH [H18Y], the protein stability index was 2.66.

For the variant AKAADSPTRNDLESGLGSFSLRVH [H18S], the protein stability index was determined as 3.73. In the case of AKAADSPTRNDLESGLGLFSLRVH [H18L] it was 2.38. As to AKAADSPTRNDLESGLGRFSLRVH [H18R], the protein stability index stood at 3.08. In the case of AKAADSPTRNDLESGLGCFSLRVH [H18C] it was 3.2; in that of AKAADSPTRNDLESGLGVFSLRVH [H18V], 2.73. For AKAADSPTRNDLESGLGDFSLRVH [H18D] the value was 4.08.

Consider AKAADSPTRNDLESGLGNFSLRVH [H18N], for which the protein stability index worked out at 3.53.

With AKAADSPTRNDLESGLGWFSLRVH [H18W], the protein stability index came to 1.59. Take AKAADSPTRNDLESGLGQFSLRVH [H18Q]: the protein stability index came to 3.44. Take AKAADSPTRNDLESGLGGFSLRVH [H18G]: the protein stability index was 3.84. In the case of AKAADSPTRNDLESGLGMFSLRVH [H18M] it was 2.29.
